The record followed here is the supplement of paper PMC9170038.

This data set relates to K4 kissing-loop RNA reporter. Kind of data set: apparent KD of K4 kissing-loop reporter; higher = weaker reporter binding. Particulars: Eterna round: R107. On the procedure:
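RNA-MaP round R107: designed RNA switches with theophylline, tryptophan, arginine or FMN aptamers are transcribed on-chip within common flanks. They are titrated with a labelled K4 kissing-loop RNA reporter in RNA-MaP buffer (100 mM Tris pH 7.5, 80 mM KCl, 4 mM MgCl2), without ligand or with the indicated ligand. Median apparent KD per design.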

Where [1] appears, read: input ligand: theophylline 20 uM.
Setting [2] is: input ligand: tryptophan 2.4 mM.
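Note: bound reporter read as fluorescence of individual clusters on recovered sequencing chips by microscopy, with normalized cluster intensities fitted with a binding model.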

“GGGAUAGGAUCAGUGAUGUUGGUCCCAGAUACCAGACAAAGUCACGUCCCUUGGCAGCUGAUGAUCGCUGACGACCGGCCUCCAA [theeternabot_sameState_KL_Theo_A_7]”: the “apparent KD of K4 kissing-loop reporter” value (input ligand: FMN 200 uM) stood at 259 nM; the “apparent KD of K4 kissing-loop reporter” value (input ligand: arginine 13.2 mM) is 218 nM; the “apparent KD of K4 kissing-loop reporter” value (input ligand: none) was found to be 262 nM; the “apparent KD of K4 kissing-loop reporter” value under setting [1] amounted to 219 nM; the “apparent KD of K4 kissing-loop reporter” value under setting [2] was found to be 256 nM.

“GGGAUGAUGUCGGCCGCCACUGACUGUGUCCAGUGAUGUUGGGAGUGUACGGAAGUUCCAUAUAUCAGGACCGGGACCUCGCUCC [theeternabot_sameState_KL_Trp_B_44]”: the “apparent KD of K4 kissing-loop reporter” value (input ligand: FMN 200 uM) stood at 866 nM; the “apparent KD of K4 kissing-loop reporter” value (input ligand: arginine 13.2 mM) amounted to 487 nM; the “apparent KD of K4 kissing-loop reporter” value (input ligand: none) worked out at 938 nM; the “apparent KD of K4 kissing-loop reporter” value under setting [1] turned out to be 817 nM; the “apparent KD of K4 kissing-loop reporter” value under setting [2] was 616 nM.

For “GGGAUGUAGUGAUGUUAUAUUAGAUGUAGACGAGGACCGGUACGGCCGCCACUCGUGAUGGCUGCUAGCACGUUUCGAUGUUUGC [ExTryptoA.Cr]”, the “apparent KD of K4 kissing-loop reporter” value is, setting by setting: (input ligand: FMN 200 uM) 399 nM; (input ligand: arginine 13.2 mM) 426 nM; (input ligand: none) 428 nM; under setting [1], 462 nM; under setting [2], 309 nM.

For the sequence “GGGCGUGGCGCGGCCGCCACUGGGCCUGGGUGCUCGCUGAGUGAUGUUCGUCGGCGGUUGGGUCGUAGGACCGGGUGCUGGUUGG [BDazzled - #9 SS Tryptophan B]”, the “apparent KD of K4 kissing-loop reporter” value was 771 nM (input ligand: FMN 200 uM); 347 nM (input ligand: arginine 13.2 mM); 607 nM (input ligand: none); 447 nM under setting [1]; 575 nM under setting [2].

As to “GGUAGCAUGGCGGCCGCCACUAAAACUGGAUCGGAAACGAUCCAGUAAUUUCGAGUGAUGUUCGUUAGGACCGGGCCAUGCUACC”, the “apparent KD of K4 kissing-loop reporter” value turned out to be 362 nM (input ligand: FMN 200 uM); 254 nM (input ligand: arginine 13.2 mM); 283 nM (input ligand: none); 257 nM under setting [1]; 236 nM under setting [2].

Take “GGUAGCAUGGCGGCCGCCACUCAUGUAGAUACCUACAUAGUAAGCAGUGAUGUUGCUUUGUGGUUGAGGACCGGGCCAUGCUACC”: the “apparent KD of K4 kissing-loop reporter” value (input ligand: FMN 200 uM) is 167 nM; the “apparent KD of K4 kissing-loop reporter” value (input ligand: arginine 13.2 mM) is 140 nM; the “apparent KD of K4 kissing-loop reporter” value (input ligand: none) was found to be 151 nM; the “apparent KD of K4 kissing-loop reporter” value under setting [1] came to 161 nM; the “apparent KD of K4 kissing-loop reporter” value under setting [2] is 255 nM.

For the sequence “GGUAGCUAGGCAGGAUAUAGCUAGUGGAGUGAUGUUCCACCAUACACGAGUGAUGUUCGUAACCUGCUAGAAGGGCCUAGCUACC”, the “apparent KD of K4 kissing-loop reporter” value runs as follows: (input ligand: FMN 200 uM) 114 nM; (input ligand: arginine 13.2 mM) 125 nM; (input ligand: none) 144 nM; under setting [1], 135 nM; under setting [2], 138 nM.

Turning to “GGUCGAGUGAUGUUCGAUGUUAUGCAUUCAGAGGAUAUAGGAUUAGCUAGAAGGCUGAAUCAAUCUUCGAGUGAUGUUCGAGGAU [Same State FMN A GF 9]”, the “apparent KD of K4 kissing-loop reporter” value reads like this: (input ligand: FMN 200 uM) 133 nM; (input ligand: arginine 13.2 mM) 108 nM; (input ligand: none) 115 nM; under setting [1], 123 nM; under setting [2], 112 nM.

Consider “GGUGUGCCAAGUGAUGUUUGGCGUUCUCACCGAGGACCGGUACGGCCGCCACUCGUUAACUGACCAAGUAUCUUUACCUCGGAGA [theeternabot_sameState_KL_Trp_A_8]”, for which the “apparent KD of K4 kissing-loop reporter” value (input ligand: FMN 200 uM) came to 168 nM; the “apparent KD of K4 kissing-loop reporter” value (input ligand: arginine 13.2 mM) amounted to 141 nM; the “apparent KD of K4 kissing-loop reporter” value (input ligand: none) is 159 nM; the “apparent KD of K4 kissing-loop reporter” value under setting [1] was 187 nM; the “apparent KD of K4 kissing-loop reporter” value under setting [2] amounted to 156 nM.

Regarding “GGUGUUGUUUGUGCCGCCUUCCUCGUUCCUCGAGGACCGGUACGGCCGCCACUCGAGUGAUGUUUGGGUAGCGAUCCCUGCUAGU [Bdazzled - #12 Exc. Tryptophan A]”, the “apparent KD of K4 kissing-loop reporter” value was 877 nM (input ligand: FMN 200 uM); 696 nM (input ligand: arginine 13.2 mM); 1000 nM (input ligand: none); 822 nM under setting [1]; 892 nM under setting [2].

For “GGUUCCUCAGUGAUGUUGAGGUGACCUCGGCAGGAUAUAGGCAUUACUAGAAGGGCCAAAAGAACCCUGUGUAGCGACACAGGGA [Beerma]”, the “apparent KD of K4 kissing-loop reporter” value (input ligand: FMN 200 uM) stood at 150 nM; the “apparent KD of K4 kissing-loop reporter” value (input ligand: arginine 13.2 mM) came to 269 nM; the “apparent KD of K4 kissing-loop reporter” value (input ligand: none) came to 329 nM; the “apparent KD of K4 kissing-loop reporter” value under setting [1] turned out to be 279 nM; the “apparent KD of K4 kissing-loop reporter” value under setting [2] turned out to be 299 nM.

In the case of “GGUUCUCUGUUAGGAUAUAGAUUAGAGUGAUGUUCUAACGGCCCGGGCCCGAAAGGGCCCGGGCCGCUAGAAGGAACGGAGUUGG [#2 Same State - FMN A Attempt #1 (HarryS)]”, the “apparent KD of K4 kissing-loop reporter” value was 399 nM (input ligand: FMN 200 uM); 149 nM (input ligand: arginine 13.2 mM); 1100 nM (input ligand: none); 538 nM under setting [1]; 444 nM under setting [2].

Turning to “GUACACUCUCGAGUGAUGUUCGGUAAUAGAGAGGAUAUCGCUUUUGCGAGAAGGCUCUGAAUGAGGAAACUCGUUCUGUGUGUAC [FMN A 20]”, the “apparent KD of K4 kissing-loop reporter” value by setting is: (input ligand: FMN 200 uM) 906 nM; (input ligand: arginine 13.2 mM) 686 nM; (input ligand: none) 1160 nM; under setting [1], 858 nM; under setting [2], 894 nM.

In the case of “GUACGCUGCUGAGUGAUGUUCAGCAAUCGCUAGGAUAUCGCUUUUGCGAGAAGGAGCGCAAUGAGGAAACUCGUUGUUAGUGUAC [FMN A 28]”, the “apparent KD of K4 kissing-loop reporter” value turned out to be 166 nM (input ligand: FMN 200 uM); 198 nM (input ligand: arginine 13.2 mM); 255 nM (input ligand: none); 204 nM under setting [1]; 207 nM under setting [2].

As for “GUAGACGUGCCUUCAGUGAUGUUGAAGGAUACCAGAUGUUACCACAUCCCUUGGCAGCCUUGGGAUAACAGUGAGUCGGUAUAUG [Ontierso]”, the “apparent KD of K4 kissing-loop reporter” value is, setting by setting: (input ligand: FMN 200 uM) 255 nM; (input ligand: arginine 13.2 mM) 200 nM; (input ligand: none) 297 nM; under setting [1], 253 nM; under setting [2], 247 nM.

Take “GUAGCACAGUCGGCCGCCACUGUCGGUUCUCCAGUGAUGUUGGAGUUAGUUCGUCGCAGUUCAAACAGGACCGGGACCAUUCCUU [theeternabot_exclusion_KL_Trp_B_26]”: the “apparent KD of K4 kissing-loop reporter” value reads like this: (input ligand: FMN 200 uM) 125 nM; (input ligand: arginine 13.2 mM) 135 nM; (input ligand: none) 127 nM; under setting [1], 132 nM; under setting [2], 121 nM.

For “GUAUAAAUAUAAGGAUAUGCAGGGAAAGUAAGAAUGGGUUAGUUGAACUUUAGUGAUGUUGAGGAAGCAGAAGGUGUAUAUGUGU [FMN B same state]”, the “apparent KD of K4 kissing-loop reporter” value came to 650 nM (input ligand: FMN 200 uM); 272 nM (input ligand: arginine 13.2 mM); 381 nM (input ligand: none); 322 nM under setting [1]; 319 nM under setting [2].

Take “GUAUCGCUAGGAGGAUAUUUCAUAUAACAUAUAAAUGGAUAUGCGGAGUGAUGUUCCGAUUUACGGAAAGAAGGCCUAGUGAUAC [FMN B 19]”: the “apparent KD of K4 kissing-loop reporter” value is, setting by setting: (input ligand: FMN 200 uM) 119 nM; (input ligand: arginine 13.2 mM) 172 nM; (input ligand: none) 192 nM; under setting [1], 207 nM; under setting [2], 172 nM.

For “GUAUUGUGAAUGGAUACCAGACACCCGAGUGAUGUUCGGAGCAGAGUGAUGUUCUAAUAAGUCCCUUGGCAGCCGGAAGCAGCCG [Same State Theophylline B GF 3]”, the “apparent KD of K4 kissing-loop reporter” value (input ligand: FMN 200 uM) was 223 nM; the “apparent KD of K4 kissing-loop reporter” value (input ligand: arginine 13.2 mM) is 296 nM; the “apparent KD of K4 kissing-loop reporter” value (input ligand: none) was found to be 340 nM; the “apparent KD of K4 kissing-loop reporter” value under setting [1] amounted to 392 nM; the “apparent KD of K4 kissing-loop reporter” value under setting [2] stood at 242 nM.

In the case of “GUCUCGAGUGAUGUUCGGGUCGUUUGGGAAGGAGCGCCCGGAAGGGCAGGUAGGUCGCCCGGACCGCGCGGGCAACCGCGCGGCC [#2 Same State - Arginine A Attempt #12 (HarryS)]”, the “apparent KD of K4 kissing-loop reporter” value is, setting by setting: (input ligand: FMN 200 uM) 228 nM; (input ligand: arginine 13.2 mM) 162 nM; (input ligand: none) 217 nM; under setting [1], 212 nM; under setting [2], 192 nM.

Consider “GUGAGUGACGGAGGAUAUGCGAUAGAUGUAGGAAAAUUAGUGAUGUUAGUUAUGGUAGAGAUAGAAGUAGAAGGUUGGUGUGUGU [RHig 3/7]”, for which the “apparent KD of K4 kissing-loop reporter” value amounted to 551 nM (input ligand: FMN 200 uM); 394 nM (input ligand: arginine 13.2 mM); 561 nM (input ligand: none); 585 nM under setting [1]; 395 nM under setting [2].
